# Key:
# HLA-A*03:01 [1] = assay: IEDB peptide-MHC binding, purified MHC/competitive/fluorescence; filed as Kd, often an IC50 or EC50 that approximates it; ≥ and ≤ were set here for values at or beyond the usual limits of such assays
# HLA-B*07:02 = assay: IEDB peptide-MHC binding, purified MHC/competitive/radioactivity; filed as Kd, often an IC50 or EC50 that approximates it; ≥ and ≤ were set here for values at or beyond the usual limits of such assays
# HLA-B*53:01 = assay: as above
# HLA-B*35:01 = assay: as above
# HLA-B*54:01 = assay: as above
# HLA-B*51:01 = assay: as above
# HLA-B*18:01 [2] = assay: IEDB peptide-MHC binding, purified MHC/direct/fluorescence; filed as Kd, often an IC50 or EC50 that approximates it; ≥ and ≤ were set here for values at or beyond the usual limits of such assays
# HLA-A*02:01 = assay: IEDB peptide-MHC binding, purified MHC/competitive/radioactivity; filed as Kd, often an IC50 or EC50 that approximates it; ≥ and ≤ were set here for values at or beyond the usual limits of such assays
# HLA-A*68:02 = assay: as above
# HLA-A*02:03 = assay: as above
# HLA-A*02:06 = assay: as above
# HLA-A*02:02 = assay: as above
# HLA-A*68:01 = assay: as above
# HLA-A*11:01 = assay: as above
# HLA-A*33:01 = assay: as above
# HLA-A*03:01 [3] = assay: as above
# HLA-A*31:01 = assay: as above
# HLA-B*15:01 = assay: IEDB peptide-MHC binding, purified MHC/competitive/fluorescence; filed as Kd, often an IC50 or EC50 that approximates it; ≥ and ≤ were set here for values at or beyond the usual limits of such assays; settings: source organism: Shigella flexneri 5 str. 8401
# HLA-B*44:03 = assay: IEDB peptide-MHC binding, purified MHC/competitive/radioactivity; filed as Kd, often an IC50 or EC50 that approximates it; ≥ and ≤ were set here for values at or beyond the usual limits of such assays; settings: source organism: Hepacivirus hominis
# HLA-B*44:02 [4] = assay: as above; settings: source organism: Hepacivirus hominis
# HLA-A*01:01 = assay: as above; settings: source organism: Hepacivirus hominis
# HLA-B*08:01 = assay: as above; settings: source organism: Hepacivirus hominis
# HLA-B*40:01 [5] = assay: as above; settings: source organism: Hepacivirus hominis
# HLA-B*18:01 [6] = assay: as above; settings: source organism: Hepacivirus hominis
# HLA-B*40:02 = assay: as above; settings: source organism: Hepacivirus hominis
# HLA-B*44:02 [7] = assay: IEDB peptide-MHC binding, purified MHC/direct/fluorescence; filed as Kd, often an IC50 or EC50 that approximates it; ≥ and ≤ were set here for values at or beyond the usual limits of such assays
# HLA-B*40:01 [8] = assay: as above
# [9] = source organism: Human alphaherpesvirus 2
# [10] = source organism: Vaccinia virus WR
# [11] = source organism: Mammarenavirus lassaense
# [12] = source organism: SARS coronavirus Tor2
# [13] = source organism: Trypanosoma cruzi
# [14] = source organism: Vaccinia virus Copenhagen
# [15] = source organism: Giardia lamblia ATCC 50803
# [16] = source organism: Lymphocytic choriomeningitis virus (strain Armstrong)
# [17] = source organism: Triticum aestivum
# [18] = source organism: Hepacivirus hominis
# [19] = source organism: Influenza A virus (A/duck/Guangxi/1586/2004(H5N1))
# [20] = source organism: Orthohantavirus dobravaense
# [21] = source organism: Mammarenavirus juninense
# [22] = source organism: Orthohantavirus andesense
sequence,measurement,setting,value
ALTSAMLDR,Kd,HLA-A*03:01 [1]; source organism: Yersinia pestis Antiqua,0.0381 µM
APAWSRRTL,Kd,HLA-B*07:02; [9],0.00019 µM
same,Kd,HLA-B*53:01; [9],3.55 µM
same,Kd,HLA-B*35:01; [9],3.24 µM
same,Kd,HLA-B*54:01; [9],5.56 µM
same,Kd,HLA-B*51:01; [9],≥ 59.5 µM
APKQVAGTGV,Kd,HLA-B*07:02; [10],0.0109 µM
same,Kd,HLA-B*53:01; [10],≥ 69.9 µM
same,Kd,HLA-B*35:01; [10],≥ 69.9 µM
same,Kd,HLA-B*54:01; [10],0.266 µM
same,Kd,HLA-B*51:01; [10],≥ 61 µM
CPFLFLTVL,Kd,HLA-B*07:02; [11],0.0995 µM
same,Kd,HLA-B*53:01; [11],0.216 µM
same,Kd,HLA-B*35:01; [11],0.0412 µM
same,Kd,HLA-B*54:01; [11],0.16 µM
same,Kd,HLA-B*51:01; [11],0.746 µM
CPQKKKSQA,Kd,HLA-B*07:02; [10],0.105 µM
same,Kd,HLA-B*53:01; [10],≥ 78.2 µM
same,Kd,HLA-B*35:01; [10],≥ 77.4 µM
same,Kd,HLA-B*54:01; [10],0.0667 µM
same,Kd,HLA-B*51:01; [10],≥ 77.5 µM
DPLVIPFSF,Kd,HLA-B*18:01 [2]; source organism: Salmonella enterica subsp. enterica serovar Paratyphi A str. ATCC 9150,3.13 µM
DPPIPYSRV,Kd,HLA-B*07:02; [10],≥ 77.5 µM
same,Kd,HLA-B*53:01; [10],≥ 31.5 µM
same,Kd,HLA-B*35:01; [10],≥ 53.4 µM
same,Kd,HLA-B*54:01; [10],0.32 µM
same,Kd,HLA-B*51:01; [10],0.031 µM
ELNDRLAVYI,Kd,HLA-A*02:01; source organism: Homo sapiens,1.16 µM
same,Kd,HLA-A*68:02; source organism: Homo sapiens,0.0506 µM
same,Kd,HLA-A*02:03; source organism: Homo sapiens,1.22 µM
same,Kd,HLA-A*02:06; source organism: Homo sapiens,≥ 30.4 µM
same,Kd,HLA-A*02:02; source organism: Homo sapiens,0.134 µM
EPSGNNYHI,Kd,HLA-B*07:02; [10],1.42 µM
same,Kd,HLA-B*53:01; [10],0.0203 µM
same,Kd,HLA-B*35:01; [10],≥ 44.3 µM
same,Kd,HLA-B*54:01; [10],1.58 µM
same,Kd,HLA-B*51:01; [10],0.692 µM
FPQVGGLTSI,Kd,HLA-B*07:02; [12],0.162 µM
same,Kd,HLA-B*53:01; [12],0.024 µM
same,Kd,HLA-B*35:01; [12],0.609 µM
same,Kd,HLA-B*54:01; [12],0.0257 µM
same,Kd,HLA-B*51:01; [12],0.0768 µM
GITRPTTVV,Kd,HLA-A*02:01; [13],≥ 50.7 µM
same,Kd,HLA-A*68:02; [13],3.15 µM
same,Kd,HLA-A*02:03; [13],0.795 µM
same,Kd,HLA-A*02:06; [13],6.13 µM
same,Kd,HLA-A*02:02; [13],14 µM
GVLPLLLLYS,Kd,HLA-A*02:01; [13],2.37 µM
same,Kd,HLA-A*68:02; [13],3.56 µM
same,Kd,HLA-A*02:03; [13],0.673 µM
same,Kd,HLA-A*02:06; [13],0.0149 µM
same,Kd,HLA-A*02:02; [13],1.3 µM
IPEISSNDNA,Kd,HLA-B*07:02; [10],≥ 69.6 µM
same,Kd,HLA-B*53:01; [10],2.39 µM
same,Kd,HLA-B*35:01; [10],≥ 69.9 µM
same,Kd,HLA-B*54:01; [10],4.54 µM
same,Kd,HLA-B*51:01; [10],≥ 69.6 µM
LILSCIFAFI,Kd,HLA-B*07:02; [14],≥ 69.6 µM
same,Kd,HLA-A*68:01; [14],0.658 µM
same,Kd,HLA-A*68:02; [14],0.0175 µM
same,Kd,HLA-A*11:01; [14],5.71 µM
same,Kd,HLA-B*53:01; [14],1.84 µM
same,Kd,HLA-A*33:01; [14],1.86 µM
same,Kd,HLA-A*03:01 [3]; [14],0.947 µM
same,Kd,HLA-B*35:01; [14],≥ 36.6 µM
same,Kd,HLA-A*02:03; [14],0.0199 µM
same,Kd,HLA-B*54:01; [14],1.52 µM
same,Kd,HLA-A*02:06; [14],0.0425 µM
same,Kd,HLA-A*31:01; [14],0.254 µM
same,Kd,HLA-B*51:01; [14],17.2 µM
same,Kd,HLA-A*02:02; [14],0.00522 µM
LMLASSAGH,Kd,HLA-A*03:01 [1]; [15],0.559 µM
LMLASSAGK,Kd,HLA-A*03:01 [1]; [15],0.0078 µM
LPNVQFVDI,Kd,HLA-B*07:02; [10],2.71 µM
same,Kd,HLA-B*53:01; [10],0.0652 µM
same,Kd,HLA-B*35:01; [10],0.234 µM
same,Kd,HLA-B*54:01; [10],0.0168 µM
same,Kd,HLA-B*51:01; [10],0.0322 µM
MPKDGLKVL,Kd,HLA-B*07:02; [11],0.802 µM
same,Kd,HLA-B*53:01; [11],2.32 µM
same,Kd,HLA-B*35:01; [11],0.421 µM
same,Kd,HLA-B*54:01; [11],0.0965 µM
same,Kd,HLA-B*51:01; [11],6.53 µM
MPSLTMACM,Kd,HLA-B*07:02; [16],0.112 µM
same,Kd,HLA-B*53:01; [16],2.16 µM
same,Kd,HLA-B*35:01; [16],0.00544 µM
same,Kd,HLA-B*54:01; [16],1.29 µM
same,Kd,HLA-B*51:01; [16],0.881 µM
NELQTLPSL,Kd,HLA-B*15:01,≥ 20 µM
same,Kd,HLA-A*03:01 [1]; source organism: Shigella flexneri 5 str. 8401,≥ 20 µM
QPQLPYPQPQL,Kd,HLA-B*07:02; [17],9.63 µM
same,Kd,HLA-B*53:01; [17],≥ 63.7 µM
same,Kd,HLA-B*35:01; [17],≥ 40.7 µM
same,Kd,HLA-B*54:01; [17],≥ 63.7 µM
same,Kd,HLA-B*51:01; [17],0.353 µM
RDWAHNSL,Kd,HLA-B*44:03,≥ 87.2 µM
same,Kd,HLA-B*44:02 [4],≥ 75.4 µM
same,Kd,HLA-B*07:02; [18],5.68 µM
same,Kd,HLA-A*68:01; [18],≥ 87.9 µM
same,Kd,HLA-A*02:01; [18],≥ 69.4 µM
same,Kd,HLA-A*01:01,1.8 µM
same,Kd,HLA-A*68:02; [18],≥ 69.8 µM
same,Kd,HLA-A*11:01; [18],≥ 87 µM
same,Kd,HLA-B*53:01; [18],≥ 87.7 µM
same,Kd,HLA-A*33:01; [18],≥ 78.4 µM
same,Kd,HLA-A*03:01 [3]; [18],≥ 87.3 µM
same,Kd,HLA-B*35:01; [18],≥ 87.8 µM
same,Kd,HLA-A*02:03; [18],≥ 70.4 µM
same,Kd,HLA-B*54:01; [18],≥ 87.7 µM
same,Kd,HLA-B*08:01,≥ 83.4 µM
same,Kd,HLA-B*40:01 [5],≥ 88.9 µM
same,Kd,HLA-A*02:06; [18],≥ 55.7 µM
same,Kd,HLA-B*18:01 [6],≥ 88.6 µM
same,Kd,HLA-B*40:02,≥ 89.5 µM
same,Kd,HLA-A*31:01; [18],≥ 67.1 µM
same,Kd,HLA-B*51:01; [18],≥ 87.3 µM
same,Kd,HLA-A*02:02; [18],≥ 70 µM
REILTKTTV,Kd,HLA-B*44:02 [7]; [19],≥ 47.8 µM
same,Kd,HLA-B*40:01 [8]; [19],0.0049 µM
same,Kd,HLA-B*18:01 [2]; [19],0.358 µM
SEVTTCFFL,Kd,HLA-B*40:01 [8]; [20],0.0127 µM
same,Kd,HLA-B*18:01 [2]; [20],0.0485 µM
SQCQAIHNV,Kd,HLA-A*02:01; [17],0.972 µM
same,Kd,HLA-A*68:02; [17],5.79 µM
same,Kd,HLA-A*02:03; [17],0.254 µM
same,Kd,HLA-A*02:06; [17],0.132 µM
same,Kd,HLA-A*02:02; [17],0.77 µM
TPENFSSLI,Kd,HLA-B*07:02; [21],8.26 µM
same,Kd,HLA-B*53:01; [21],1.32 µM
same,Kd,HLA-B*35:01; [21],≥ 38.7 µM
same,Kd,HLA-B*54:01; [21],≥ 78.1 µM
same,Kd,HLA-B*51:01; [21],1.96 µM
VENSPRASL,Kd,HLA-B*40:01 [8]; [11],0.114 µM
same,Kd,HLA-B*18:01 [2]; [11],0.552 µM
VPWSKILAY,Kd,HLA-B*07:02; [12],0.447 µM
same,Kd,HLA-B*53:01; [12],0.00708 µM
same,Kd,HLA-B*35:01; [12],0.00822 µM
same,Kd,HLA-B*54:01; [12],0.536 µM
same,Kd,HLA-B*51:01; [12],0.0905 µM
YEGDLRVTF,Kd,HLA-B*44:02 [7]; [22],4.3 µM
same,Kd,HLA-B*40:01 [8]; [22],0.0083 µM
same,Kd,HLA-B*18:01 [2]; [22],≤ 0.001 µM
